These results are taken from patent US6949366 (Amgen, dated 2005).

The target of assay [1] is T1, soluble rat elk/Fc fusion protein (rat; human, UniProt P09759 18-540; P01857 99-330 = IgG part, limits assumed).
T1 construct: extracellular domain;domain: Fc region; The junction between elk and Fc is not described
Nature of the assay: indirect Scatchard binding: elk/Fc titrated on CV1-EBNA-1 cells expressing elk-L, detected with 125I mouse anti-human IgG.

Assay [2] deals with T1, soluble rat elk/Fc fusion protein. Nature of the assay: indirect Scatchard binding: elk/Fc titrated on CV1-EBNA-1 cells expressing hek-L C6, detected with 125I mouse anti-human IgG; biphasic, first component.
The target is the same in assay [3]. Nature of the assay: indirect Scatchard binding: elk/Fc titrated on CV1-EBNA-1 cells expressing hek-L C6, detected with 125I mouse anti-human IgG; biphasic, second component.
Assay [4] has the same target. Nature of the assay: indirect Scatchard binding: elk/Fc titrated on CV1-EBNA-1 cells expressing hek-L A2, detected with 125I mouse anti-human IgG; biphasic, second component.
For assay [5] the target is unchanged. Nature of the assay: indirect Scatchard binding: elk/Fc titrated on CV1-EBNA-1 cells expressing hek-L A2, detected with 125I mouse anti-human IgG; biphasic, first component.
Assay [6] shares this target. Nature of the assay: indirect Scatchard binding: elk/Fc titrated on CV1-EBNA-1 cells expressing B61, detected with 125I mouse anti-human IgG; biphasic, second component.
Assay [7] shares this target. Nature of the assay: indirect Scatchard binding: elk/Fc titrated on CV1-EBNA-1 cells expressing B61, detected with 125I mouse anti-human IgG; biphasic, first component (the cell prints 23, the text at paragraph 137 prints 2.3).
Assay [8] has the same target. Nature of the assay: indirect Scatchard binding: elk/Fc titrated on CV1-EBNA-1 cells expressing B61; biphasic, first component as the text prints it (differs from the table's cell).

T1 sequence (P09759 other isoform, or with tags, fused parts or gaps limits assumed): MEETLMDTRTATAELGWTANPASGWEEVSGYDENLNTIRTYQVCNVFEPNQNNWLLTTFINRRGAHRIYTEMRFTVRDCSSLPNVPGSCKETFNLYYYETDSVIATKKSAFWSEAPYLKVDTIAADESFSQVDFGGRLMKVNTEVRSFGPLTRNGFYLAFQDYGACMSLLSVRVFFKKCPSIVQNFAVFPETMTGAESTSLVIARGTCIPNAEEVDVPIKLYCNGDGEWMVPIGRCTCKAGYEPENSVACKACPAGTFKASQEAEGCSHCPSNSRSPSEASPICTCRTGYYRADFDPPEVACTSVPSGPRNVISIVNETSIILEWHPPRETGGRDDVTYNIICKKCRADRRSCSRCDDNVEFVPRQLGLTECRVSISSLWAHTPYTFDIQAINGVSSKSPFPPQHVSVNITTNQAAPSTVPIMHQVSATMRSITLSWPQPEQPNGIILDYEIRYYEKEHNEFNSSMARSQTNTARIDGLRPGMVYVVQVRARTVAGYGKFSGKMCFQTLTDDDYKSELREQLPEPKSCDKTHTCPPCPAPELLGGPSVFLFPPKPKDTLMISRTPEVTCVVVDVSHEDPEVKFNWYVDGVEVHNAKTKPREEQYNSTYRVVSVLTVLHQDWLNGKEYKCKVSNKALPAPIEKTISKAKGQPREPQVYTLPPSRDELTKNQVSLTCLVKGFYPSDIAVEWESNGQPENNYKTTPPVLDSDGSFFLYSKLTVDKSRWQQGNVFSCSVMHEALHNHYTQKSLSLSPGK

B1: human elk ligand (ligand, UniProt P98172 28-346, looked up)
chain: LAKNLEPVSWSSLNPKFLSGKGLVIYPKIGDKLDIICPRAEAGRPYEYYKLYLVRPEQAAACSTVLDPNVLVTCNRPEQEIRFTIKFQEFSPNYMGLEFKKHHDYYITSTSNGSLEGLENREGGVCRTRTMKIIMKVGQDPNAVTPEQLTTSRPSKEADNTVKMATQAPGSRGSLGDSDGKHETVNQEEKSGPGASGGSSGDPDGFFNSKVALFAAVGAGCVIFLLIIIFLTVLLLKLRKRHRKHTQQRAAALSLSTLASPKGGSGTAGTEPSDIIIPLRTTENNYCPHYEKVSGDYGHPVYIVQEMPPQSPANIYYKV
notes: whole, on cells
Turning to B1, the Ka in assay [1] stood at 1.08e+09 M⁻¹.

B2: human hek ligand encoded by clone C6 (ligand)
chain: GSSLRHVVYWNSSNPRLLRGDAVVELGLNDYLDIVCPHYEGPGPPEGPETFALYMVDWPGYESCQAEGPRAYKRWVCSLPFGHVQFSEKIQRFTPFSLGFEFLPGETYYYISVPTPESSGQCLRLQVSVCCKERKSESAHPVGSPGES
modifications: GPI anchor at the C-terminus after cleavage (likely on Ser 148 in the filing's numbering; site not determined)
notes: Expressed from the full-length clone C6 cDNA in pDC410 on CV1-EBNA-1 cells and held on the membrane by a GPI anchor; also called hek-L C6; hek ligand C6
Turning to B2, the Ka turned out to be 1.3e+08 M⁻¹ in assay [2] and 5.4e+07 M⁻¹ in assay [3].

B3: human hek ligand encoded by clone A2 (ligand)
chain: LLAQGPGGALGNRHAVYWNSSNQHLRREGYTVQVNVNDYLDIYCPHYNSSGVGPGAGPGPGGGAEQYVLYMVSRNGYRTCNASQGFKRWECNRPHAPHSPIKFSEKFQRYSAFSLGYEFHAGHEYYYISTPTHNLHWKCLRMKVFVCCASTSHSGEKPVPTLPQFTMGPNVKINVLEDFEGENPQVPKLEKSIS
modifications: GPI anchor at the C-terminus after cleavage (likely on Ser 194 in the filing's numbering; site not determined)
notes: Expressed from the full-length clone A2 cDNA in pDC410 on CV1-EBNA-1 cells and held on the membrane by a GPI anchor; also called hek-L A2; hek ligand A2
Regarding B3, the Ka was 3.5e+07 M⁻¹ in assay [4] and 2.7e+08 M⁻¹ in assay [5].

B4: human B61 (ligand, UniProt P20827 19-182, looked up)
chain: DRHTVFWNSSNPKFRNEDYTIHVQLNDYVDIICPHYEDHSVADAAMEQYILYLVEHEEYQLCQPQSKDQVRWQCNRPSAKHGPEKLSEKFQRFTPFTLGKEFKEGHSYYYISKPIHQHEDRCLRLKVTVSGKITHSPQAHDNPQEKRLAADDPEVRVLHSIGHS
notes: whole, on cells
Take B4: the results for the Ka in assay [6], in assay [7] and in assay [8] were 7e+07 M⁻¹, 2.3e+09 M⁻¹ and 2.3e+08 M⁻¹, respectively.
